Reference: patent US20250154277A1 (CONCEPT TO MEDICINE BIOTECH, published 2025)

T1: human 5T4-His protein (human, UniProt Q13641 32-355)
T1 construct: also called recombinant 5T4 protein (human 5T4-his tag); human 5T4 protein; not shown: His tag
T1 sequence (looked up): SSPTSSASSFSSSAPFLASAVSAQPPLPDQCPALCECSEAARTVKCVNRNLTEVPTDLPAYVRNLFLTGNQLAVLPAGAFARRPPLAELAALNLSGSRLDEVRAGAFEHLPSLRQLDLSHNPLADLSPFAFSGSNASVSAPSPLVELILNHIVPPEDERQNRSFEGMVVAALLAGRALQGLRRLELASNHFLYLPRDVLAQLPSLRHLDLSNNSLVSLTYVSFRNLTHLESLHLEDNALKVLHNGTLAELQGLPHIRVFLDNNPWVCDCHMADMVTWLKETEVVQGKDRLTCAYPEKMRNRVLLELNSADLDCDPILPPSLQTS


Tests used:
human 5T4-His protein [1] = target: T1, human 5T4-His protein; experiment: ELISA, coated 5T4-His
Experimental: To evaluate the binding activity of 14G12 humanized antibodies to human 5T4, the 14G12 chimeric antibody along with 14G12 humanized mAbs were subjected to ELISA test.
Briefly, microtiter plates were coated with human 5T4-His protein at 1 μg/ml in PBS, 100 μl/well at 4° C. overnight, then blocked with […]. Serial dilutions of antibodies were added to each well and incubated for 1 hour at 37° C. The plates were washed with PBS/Tween and then incubated with Goat Anti-Human IgG-HRP for 30 mins at 37° C. After washing, the plates were developed with TMB substrate and analyzed by spectrophotometer at OD 450 nm. As shown in FIG. 10 and Table 6, most of the humanized antibodies bound to human 5T4 at high activity.

human 5T4-His protein [2] = target: T1, human 5T4-His protein; experiment: SPR Biacore, Protein A capture
Experimental: The binding of the 14G12 humanized antibodies to recombinant 5T4 protein (human 5T4-his tag) was tested with Biacore using a capture method. The mAbs were captured using Protein A chip. Serial dilution of human 5T4-his tag protein was injected over captured antibody for 120 s-180 s at a flow rate of 30 μl/min. The antigen was allowed to dissociate for 360 s-1000 s. All the experiments were carried out on a Biacore T200. Data analysis was carried out using the Biacore T200 evaluation software.

Row | Binder | EC50 (human 5T4-His protein [1]) [ng/mL] | Kd (human 5T4-His protein [2]) [nM] | koff (human 5T4-His protein [2]) [s⁻¹] | kon (human 5T4-His protein [2]) [M⁻¹ s⁻¹]
1 | Hu14G12-2 (antibody, V domains shown, humanized) VH: EVQLVQSGAEVKKPGATVKISCKVSGYAFSSSWMNWVQQAPGKGLEWMGRIYREDGHTNYNGKFKGRVTITADTSTDTAYMELSSLRSEDTAVYYCATGGAMDYWGQGTLVTVSS VL: DIQMTQSPSSLSASVGDRVTITCRASQDISNYLNWYQQKPGKAPKLLIYYTSRLHSGVPSRFSGSGSGTDYTFTISSLQPEDIATYFCQQDNTLPWTFGGGTKLEIK | 21 | 21.5 | 0.00436 | 203000
2 | Hu14G12-36 (antibody, V domains shown, humanized) VH: QVQLVQSGAEVKKPGASVKVSCKASGYAFSSSWMNWVRQAPGQGLEWMGRIYREDGHTNYNGKFKGRVTMTADKSTTTAYMELSSLRSEDTAVYYCANGGAMDYWGQGTLVTVSS VL: DIVMTQSPDSLAVSLGERATINCRASQDISNYLNWYQQKPGQPPKLLIYYTSRLHSGVPDRFSGSGSGTDYTLTISSLQAEDIAVYFCQQDNTLPWTFGGGTKVEIK | 6.8 |  |  | 
3 | Hu14G12-26 (antibody, V domains shown, humanized) VH: QVQLVQSGAEVKKPGSSVKVSCKASGYAFSSSWMNWVRQAPGQGLEWMGRIYREDGHTNYNGKFKGRVTITADKSTTTAYMELSSLRSEDTAVYYCANGGAMDYWGQGTLVTVSS VL: DIVMTQSPDSLAVSLGERATINCRASQDISNYLNWYQQKPGQPPKLLIYYTSRLHSGVPDRFSGSGSGTDYTLTISSLQAEDIAVYFCQQDNTLPWTFGGGTKVEIK | 6.9 |  |  | 
4 | Hu14G12-10 (antibody, V domains shown, humanized) VH: EVQLVQSGAEVKKPGATVKISCKVSGYAFSSSWMNWVKQAPGKGLEWIGRIYREDGHTNYNGKFKGRATITADTSTTTAYMELSSLRSEDTAVYFCANGGAMDYWGQGTLVTVSS VL: DIQMTQSPSSLSASVGDRVTITCRASQDISNYLNWYQQKPGKAPKLLIYYTSRLHSGVPSRFSGSGSGTDYTFTISSLQPEDIATYFCQQDNTLPWTFGGGTKLEIK | 15 | 2.42 | 0.000512 | 212000
5 | Hu14G12-31 (antibody, V domains shown, humanized) VH: QVQLVQSGAEVKKPGASVKVSCKASGYAFSSSWMNWVRQAPGQGLEWMGRIYREDGHTNYNGKFKGRVTMTADKSITTAYMELSRLRSDDTAVYYCANGGAMDYWGQGTLVTVSS VL: DIVMTQSPDSLAVSLGERATINCRASQDISNYLNWYQQKPGQPPKLLIYYTSRLHSGVPDRFSGSGSGTDYTLTISSLQAEDIAVYFCQQDNTLPWTFGGGTKVEIK | 8.4 |  |  | 
6 | Hu14G12-29 (antibody, V domains shown, humanized) VH: QVQLVQSGAEVKKPGASVKVSCKASGYAFSSSWMNWVRQAPGQGLEWMGRIYREDGHTNYNGKFKGRVTMTADKSITTAYMELSRLRSDDTAVYYCANGGAMDYWGQGTLVTVSS VL: DIQMTQSPSSLSASVGDRVTITCRASQDISNYLNWYQQKPGKAPKLLIYYTSRLHSGVPSRFSGSGSGTDYTLTISSLQPEDIATYFCQQDNTLPWTFGGGTKVEIK | 6.7 | 2.14 | 0.0011 | 514000
7 | Hu14G12-23 (antibody, V domains shown, humanized) VH: QVQLVQSGAEVKKPGSSVKVSCKASGYAFSSSWMNWVRQAPGQGLEWMGRIYREDGHTNYNGKFKGRVTITADKSTTTAYMELSSLRSEDTAVYYCANGGAMDYWGQGTLVTVSS VL: DIQMTQSPSSLSASVGDRVTITCRASQDISNYLNWYQQKPGKAPKLLIYYTSRLHSGVPSRFSGSGSGTDYTFTISSLQPEDIATYFCQQDNTLPWTFGGGTKVEIK | 7.1 | 2.58 | 0.000908 | 352000
8 | Hu14G12-6 (antibody, V domains shown, humanized) VH: EVQLVQSGAEVKKPGATVKISCKVSGYAFSSSWMNWVQQAPGKGLEWIGRIYREDGHTNYNGKFKGRVTITADTSTDTAYMELSSLRSEDTAVYFCANGGAMDYWGQGTLVTVSS VL: DIQMTQSPSSLSASVGDRVTITCRASQDISNYLNWYQQKPGKAPKLLIYYTSRLHSGVPSRFSGSGSGTDYTFTISSLQPEDIATYFCQQDNTLPWTFGGGTKLEIK | 10 | 2.68 | 0.00077 | 288000
9 | Hu14G12-32 (antibody, V domains shown, humanized) VH: QVQLVQSGAEVKKPGASVKVSCKASGYAFSSSWMNWVRQAPGQGLEWMGRIYREDGHTNYNGKFKGRVTMTADKSITTAYMELSRLRSDDTAVYYCANGGAMDYWGQGTLVTVSS VL: DIQMTQSPSTLSASVGDRVTITCRASQDISNYLNWYQQKPGKAPKLLIYYTSRLHSGVPSRFSGSGSGTEYTLTISSLQPDDIATYFCQQDNTLPWTFGGGTKVEIK | 9.3 | 2.76 | 0.000979 | 355000
10 | Hu14G12-14 (antibody, V domains shown, humanized) VH: EVQLVQSGAEVKKPGATVKISCKASGYAFSSSWMNWVKQAPGKGLEWIGRIYREDGHTNYNGKFKGRATITADTSTTTAYMELSSLRSEDSAVYFCANGGAMDYWGQGTLVTVSS VL: DIQMTQSPSSLSASVGDRVTITCRASQDISNYLNWYQQKPGKAPKLLIYYTSRLHSGVPSRFSGSGSGTDYTFTISSLQPEDIATYFCQQDNTLPWTFGGGTKLEIK | 14 | 3.39 | 0.000701 | 207000

Next, values leading:

Row | EC50 (human 5T4-His protein [1]) [ng/mL] | Kd (human 5T4-His protein [2]) [nM] | koff (human 5T4-His protein [2]) [s⁻¹] | kon (human 5T4-His protein [2]) [M⁻¹ s⁻¹] | Binder
11 | 8.2 |  |  |  | Hu14G12-45 (antibody, V domains shown, humanized) VH: QVQLVQSGAEVKKPGASVKVSCKASGYAFSSSWMNWVRQAPGQGLEWMGRIYREDGHTNYNGKFKGRVTMTADKSTTTAYMELRSLRSDDTAVYYCANGGAMDYWGQGTLVTVSS VL: EIVMTQSPATLSLSPGERATLSCRASQDISNYLNWYQQKPGQAPRLLIYYTSRLHSGIPARFSGSGSGTDYTLTISSLEPEDIAVYFCQQDNTLPWTFGGGTKVEIK
12 | 4.7 |  |  |  | Hu14G12-41 (antibody, V domains shown, humanized) VH: QVQLVQSGAEVKKPGASVKVSCKASGYAFSSSWMNWVRQAPGQRLEWMGRIYREDGHTNYNGKFKGRVTITADKSATTAYMELSSLRSEDTAVYYCANGGAMDYWGQGTLVTVSS VL: DIVMTQSPDSLAVSLGERATINCRASQDISNYLNWYQQKPGQPPKLLIYYTSRLHSGVPDRFSGSGSGTDYTLTISSLQAEDIAVYFCQQDNTLPWTFGGGTKVEIK
13 | 11 | 1.05 | 0.00142 | 1.34e+06 | Hu14G12-37 (antibody, V domains shown, humanized) VH: QVQLVQSGAEVKKPGASVKVSCKASGYAFSSSWMNWVRQAPGQGLEWMGRIYREDGHTNYNGKFKGRVTMTADKSTTTAYMELSSLRSEDTAVYYCANGGAMDYWGQGTLVTVSS VL: DIQMTQSPSTLSASVGDRVTITCRASQDISNYLNWYQQKPGKAPKLLIYYTSRLHSGVPSRFSGSGSGTEYTLTISSLQPDDIATYFCQQDNTLPWTFGGGTKVEIK
14 | 23 |  |  |  | Hu14G12-46 (antibody, V domains shown, humanized) VH: QVQLVQSGAEVKKPGASVKVSCKASGYAFSSSWMNWVRQAPGQGLEWMGRIYREDGHTNYNGKFKGRVTMTADKSTTTAYMELRSLRSDDTAVYYCANGGAMDYWGQGTLVTVSS VL: DIVMTQSPDSLAVSLGERATINCRASQDISNYLNWYQQKPGQPPKLLIYYTSRLHSGVPDRFSGSGSGTDYTLTISSLQAEDIAVYFCQQDNTLPWTFGGGTKVEIK
15 | 6.4 | 0.844 | 0.0016 | 1.89e+06 | Hu14G12-43 (antibody, V domains shown, humanized) VH: QVQLVQSGAEVKKPGASVKVSCKASGYAFSSSWMNWVRQAPGQGLEWMGRIYREDGHTNYNGKFKGRVTMTADKSTTTAYMELRSLRSDDTAVYYCANGGAMDYWGQGTLVTVSS VL: DIQMTQSPSSLSASVGDRVTITCRASQDISNYLNWYQQKPGKAPKLLIYYTSRLHSGVPSRFSGSGSGTDYTFTISSLQPEDIATYFCQQDNTLPWTFGGGTKVEIK
